# Assay results from the supplement of paper PMC10065799, “High-throughput profiling of sequence recognition by tyrosine kinases and SH2 domains using bacterial peptide display” (eLife, 2023).
# Target: Hck (UniProt P08631)
# Assay: phosphorylation enrichment, bacterial display (enrichment ratio); higher = better substrate or ligand; peptides without Tyr show the background
# 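Note: 11-residue human phosphosite peptides and single-mutation variants displayed on the E. coli surface, counted by deep sequencing, each peptide's frequency after selection divided by its frequency in the unselected input library; frequency after pTyr selection over input frequency; kinase dosed for 20-30% of maximal phosphorylation in three min.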
# Chain of Hck (P08631 whole entry, looked up): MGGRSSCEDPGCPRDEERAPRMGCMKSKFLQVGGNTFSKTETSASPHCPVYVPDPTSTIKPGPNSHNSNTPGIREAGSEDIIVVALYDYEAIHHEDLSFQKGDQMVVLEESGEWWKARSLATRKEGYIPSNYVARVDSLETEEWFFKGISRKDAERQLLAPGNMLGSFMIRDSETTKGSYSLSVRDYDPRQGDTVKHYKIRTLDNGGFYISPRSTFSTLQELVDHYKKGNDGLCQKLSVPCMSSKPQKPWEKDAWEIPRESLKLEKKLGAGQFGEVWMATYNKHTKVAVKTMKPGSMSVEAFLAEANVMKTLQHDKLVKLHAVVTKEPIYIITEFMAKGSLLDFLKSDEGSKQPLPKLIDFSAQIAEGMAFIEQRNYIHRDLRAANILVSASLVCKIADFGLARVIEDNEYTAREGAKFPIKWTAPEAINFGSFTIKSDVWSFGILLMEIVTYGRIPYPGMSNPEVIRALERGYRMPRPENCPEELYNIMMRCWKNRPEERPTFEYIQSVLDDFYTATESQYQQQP
row,Sequence,phosphorylation enrichment
1,IGKAGYTDKVV [ENO1_Y236],0.388
2,PFRSIYFSSPK [MPG_Y75_YF],1.11
3,LNPLFYSLRNK [OR5R1_Y290_I289F],0.475
4,LARDMDDKEYY [MET_Y1230_Y1230D],0.723
5,QKMADYSNKLY [PDPR_Y104],0.692
6,ATVLNYLPKCI [A2M_Y817],0.599
7,RPLVVYPWTQR [HBB_Y36_L32P],0.407
8,LIGRRYDDPEV [HSPA9_Y128],0.707
9,IGERTYGQVYK [CDK13_Y716_G714R],3.64
10,ENRKYYMDLKE [PURA_Y156],0.543
11,YPPDGYSRHCE [CTNND1_Y213_Y217C],0.555
12,AVSHRYDLGGL [QPRT_Y162_A158V],0.415
13,WPLKWYVPECI [ZAP70_Y506_A507V],0.572
14,PKEQRYSFLQN [GH1_Y68_K67R],0.904
15,KLLPEYPGVLS [DHFR2_Y163],0.491
16,PDKRIYQFTAA [SKAP2_Y197],0.578
17,RASQEYHIVKK [PDZD2_Y557_S552R],0.607

row,Sequence,phosphorylation enrichment
1,SLQAHYDTPRS [DOK7_Y405_R402Q],0.37
2,RLDRSYSYSYS [PEAR1_Y890],0.5
3,HFPFQCHRQLF [F12_Y53_Y53C_YF],1.07
4,TKGMIYGGGGG [PSME1_Y249],0.556
5,KLVQLYDVCTK [BTK_Y461_G462D],4.92
6,KDKLPYPFDDP [GPX2_Y125_YF],0.498
7,TGNPAYRSFSN [IL4R_Y497_A492T],0.404
8,HQPGEYIFHAE [FLT3_Y416],1.21
9,ENFDDYMKDVG [FABP4_Y20_E23D],0.554
10,PRARTYCFKQE [KLHDC9_Y175_S171R_YF],0.502
11,WAFNLYDINKD [KCNIP3_Y174],2.65
12,ALLVFYAATIA [SLC20A2_Y187_P184L],0.513
13,GMKIVYVFVKK [DNAI2_Y5_E2K_YF],0.428
14,GPSTPYTKSKR [SMARCC2_Y324],0.319
15,IVAEYYDNLPH [DEGS1_Y284_A280V],3.07
16,GLAELYEYQKK [CKAP5_Y1854_K1857Q],0.857

# Target: Fes (UniProt P07332)
# Sequence (P07332 whole entry, looked up): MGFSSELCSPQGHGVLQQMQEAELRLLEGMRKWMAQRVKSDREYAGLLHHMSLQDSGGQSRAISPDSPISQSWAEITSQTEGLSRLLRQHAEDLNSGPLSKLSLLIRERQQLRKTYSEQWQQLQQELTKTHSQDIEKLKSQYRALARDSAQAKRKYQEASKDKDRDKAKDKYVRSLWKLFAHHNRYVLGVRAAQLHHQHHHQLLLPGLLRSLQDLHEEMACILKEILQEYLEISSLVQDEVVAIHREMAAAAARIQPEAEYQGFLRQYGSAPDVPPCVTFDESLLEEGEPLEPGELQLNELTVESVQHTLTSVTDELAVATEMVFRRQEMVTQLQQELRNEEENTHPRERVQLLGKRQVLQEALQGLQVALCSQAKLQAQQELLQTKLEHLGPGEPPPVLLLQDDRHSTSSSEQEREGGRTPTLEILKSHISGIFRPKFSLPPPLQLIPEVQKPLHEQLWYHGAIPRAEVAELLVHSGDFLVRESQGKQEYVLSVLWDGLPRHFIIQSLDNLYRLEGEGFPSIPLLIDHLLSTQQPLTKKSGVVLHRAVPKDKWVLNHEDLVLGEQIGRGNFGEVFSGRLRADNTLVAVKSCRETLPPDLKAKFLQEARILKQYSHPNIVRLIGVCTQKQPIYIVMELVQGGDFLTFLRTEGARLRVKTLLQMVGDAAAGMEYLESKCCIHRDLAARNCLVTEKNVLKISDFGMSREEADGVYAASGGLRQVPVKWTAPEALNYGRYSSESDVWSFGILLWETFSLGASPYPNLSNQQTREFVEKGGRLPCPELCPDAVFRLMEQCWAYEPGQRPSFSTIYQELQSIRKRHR
# Assay: as above
row,Sequence,phosphorylation enrichment
1,IGKAGYTDKVV [ENO1_Y236],0.642
2,PFRSIYFSSPK [MPG_Y75_YF],0.666
3,LNPLFYSLRNK [OR5R1_Y290_I289F],0.773
4,LARDMDDKEYY [MET_Y1230_Y1230D],1.64
5,QKMADYSNKLY [PDPR_Y104],0.717
6,ATVLNYLPKCI [A2M_Y817],0.987
7,RPLVVYPWTQR [HBB_Y36_L32P],0.748
8,LIGRRYDDPEV [HSPA9_Y128],2.17
9,IGERTYGQVYK [CDK13_Y716_G714R],0.555
10,ENRKYYMDLKE [PURA_Y156],0.912
11,YPPDGYSRHCE [CTNND1_Y213_Y217C],0.941
12,AVSHRYDLGGL [QPRT_Y162_A158V],0.527
13,WPLKWYVPECI [ZAP70_Y506_A507V],1.18
14,PKEQRYSFLQN [GH1_Y68_K67R],1.44
15,KLLPEYPGVLS [DHFR2_Y163],0.657
16,PDKRIYQFTAA [SKAP2_Y197],0.708
17,RASQEYHIVKK [PDZD2_Y557_S552R],1.08

row,Sequence,phosphorylation enrichment
1,SLQAHYDTPRS [DOK7_Y405_R402Q],0.539
2,RLDRSYSYSYS [PEAR1_Y890],0.597
3,HFPFQCHRQLF [F12_Y53_Y53C_YF],1.64
4,TKGMIYGGGGG [PSME1_Y249],0.505
5,KLVQLYDVCTK [BTK_Y461_G462D],1.03
6,KDKLPYPFDDP [GPX2_Y125_YF],1.01
7,TGNPAYRSFSN [IL4R_Y497_A492T],0.584
8,HQPGEYIFHAE [FLT3_Y416],1.29
9,ENFDDYMKDVG [FABP4_Y20_E23D],1.12
10,PRARTYCFKQE [KLHDC9_Y175_S171R_YF],0.458
11,WAFNLYDINKD [KCNIP3_Y174],1.45
12,ALLVFYAATIA [SLC20A2_Y187_P184L],1.13
13,GMKIVYVFVKK [DNAI2_Y5_E2K_YF],1.14
14,GPSTPYTKSKR [SMARCC2_Y324],0.511
15,IVAEYYDNLPH [DEGS1_Y284_A280V],1.38
16,GLAELYEYQKK [CKAP5_Y1854_K1857Q],0.985

# Target: EPHB2 (UniProt P29323)
# Sequence (P29323 whole entry, looked up): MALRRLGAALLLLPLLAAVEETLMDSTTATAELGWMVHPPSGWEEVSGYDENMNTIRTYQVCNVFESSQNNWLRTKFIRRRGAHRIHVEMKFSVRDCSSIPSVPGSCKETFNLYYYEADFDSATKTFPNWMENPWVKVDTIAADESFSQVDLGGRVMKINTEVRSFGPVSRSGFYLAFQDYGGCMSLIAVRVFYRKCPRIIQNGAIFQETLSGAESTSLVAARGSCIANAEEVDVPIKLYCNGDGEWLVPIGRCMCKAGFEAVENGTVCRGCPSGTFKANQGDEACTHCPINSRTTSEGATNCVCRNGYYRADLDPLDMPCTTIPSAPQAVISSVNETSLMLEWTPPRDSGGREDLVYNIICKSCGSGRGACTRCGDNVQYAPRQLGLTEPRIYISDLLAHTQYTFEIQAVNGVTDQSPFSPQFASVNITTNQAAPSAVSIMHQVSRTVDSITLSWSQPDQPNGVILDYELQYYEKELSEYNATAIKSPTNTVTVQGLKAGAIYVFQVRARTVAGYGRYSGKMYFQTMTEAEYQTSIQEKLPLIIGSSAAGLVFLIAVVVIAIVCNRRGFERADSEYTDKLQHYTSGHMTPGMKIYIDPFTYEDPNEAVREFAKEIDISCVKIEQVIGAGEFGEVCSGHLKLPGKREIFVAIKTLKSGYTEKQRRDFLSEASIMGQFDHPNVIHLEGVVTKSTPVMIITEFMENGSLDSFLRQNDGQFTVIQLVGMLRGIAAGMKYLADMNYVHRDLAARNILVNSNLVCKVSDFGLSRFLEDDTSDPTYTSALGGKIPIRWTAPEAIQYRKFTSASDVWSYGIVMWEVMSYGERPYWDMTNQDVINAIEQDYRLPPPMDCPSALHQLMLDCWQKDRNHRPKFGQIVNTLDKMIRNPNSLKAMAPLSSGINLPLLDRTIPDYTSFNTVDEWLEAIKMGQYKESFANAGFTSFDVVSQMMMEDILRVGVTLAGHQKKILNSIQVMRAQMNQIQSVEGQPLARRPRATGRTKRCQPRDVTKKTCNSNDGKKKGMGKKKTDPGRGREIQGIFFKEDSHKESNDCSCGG
# Assay: as above
row,Sequence,phosphorylation enrichment
1,IGKAGYTDKVV [ENO1_Y236],0.395
2,PFRSIYFSSPK [MPG_Y75_YF],0.571
3,LNPLFYSLRNK [OR5R1_Y290_I289F],0.537
4,LARDMDDKEYY [MET_Y1230_Y1230D],1.13
5,QKMADYSNKLY [PDPR_Y104],0.455
6,ATVLNYLPKCI [A2M_Y817],0.542
7,RPLVVYPWTQR [HBB_Y36_L32P],0.695
8,LIGRRYDDPEV [HSPA9_Y128],1.63
9,IGERTYGQVYK [CDK13_Y716_G714R],0.416
10,ENRKYYMDLKE [PURA_Y156],0.473
11,YPPDGYSRHCE [CTNND1_Y213_Y217C],0.487
12,AVSHRYDLGGL [QPRT_Y162_A158V],0.524
13,WPLKWYVPECI [ZAP70_Y506_A507V],0.618
14,PKEQRYSFLQN [GH1_Y68_K67R],0.901
15,KLLPEYPGVLS [DHFR2_Y163],0.399
16,PDKRIYQFTAA [SKAP2_Y197],0.553
17,RASQEYHIVKK [PDZD2_Y557_S552R],0.471

row,Sequence,phosphorylation enrichment
1,SLQAHYDTPRS [DOK7_Y405_R402Q],0.479
2,RLDRSYSYSYS [PEAR1_Y890],0.434
3,HFPFQCHRQLF [F12_Y53_Y53C_YF],0.758
4,TKGMIYGGGGG [PSME1_Y249],0.416
5,KLVQLYDVCTK [BTK_Y461_G462D],11.7
6,KDKLPYPFDDP [GPX2_Y125_YF],0.792
7,TGNPAYRSFSN [IL4R_Y497_A492T],0.328
8,HQPGEYIFHAE [FLT3_Y416],1.12
9,ENFDDYMKDVG [FABP4_Y20_E23D],0.663
10,PRARTYCFKQE [KLHDC9_Y175_S171R_YF],0.301
11,WAFNLYDINKD [KCNIP3_Y174],1.64
12,ALLVFYAATIA [SLC20A2_Y187_P184L],0.565
13,GMKIVYVFVKK [DNAI2_Y5_E2K_YF],0.538
14,GPSTPYTKSKR [SMARCC2_Y324],0.299
15,IVAEYYDNLPH [DEGS1_Y284_A280V],0.924
16,GLAELYEYQKK [CKAP5_Y1854_K1857Q],0.472

# Test system: Fer (mouse)
# Assay: as above
row,Sequence,phosphorylation enrichment
1,IGKAGYTDKVV [ENO1_Y236],0.365
2,PFRSIYFSSPK [MPG_Y75_YF],0.595
3,LNPLFYSLRNK [OR5R1_Y290_I289F],0.75
4,LARDMDDKEYY [MET_Y1230_Y1230D],0.643
5,QKMADYSNKLY [PDPR_Y104],0.435
6,ATVLNYLPKCI [A2M_Y817],0.438
7,RPLVVYPWTQR [HBB_Y36_L32P],0.358
8,LIGRRYDDPEV [HSPA9_Y128],0.809
9,IGERTYGQVYK [CDK13_Y716_G714R],0.392
10,ENRKYYMDLKE [PURA_Y156],0.445
11,YPPDGYSRHCE [CTNND1_Y213_Y217C],0.514
12,AVSHRYDLGGL [QPRT_Y162_A158V],0.344
13,WPLKWYVPECI [ZAP70_Y506_A507V],0.44
14,PKEQRYSFLQN [GH1_Y68_K67R],0.902
15,KLLPEYPGVLS [DHFR2_Y163],0.493
16,PDKRIYQFTAA [SKAP2_Y197],0.769
17,RASQEYHIVKK [PDZD2_Y557_S552R],0.571

row,Sequence,phosphorylation enrichment
1,SLQAHYDTPRS [DOK7_Y405_R402Q],0.593
2,RLDRSYSYSYS [PEAR1_Y890],0.467
3,HFPFQCHRQLF [F12_Y53_Y53C_YF],0.587
4,TKGMIYGGGGG [PSME1_Y249],0.431
5,KLVQLYDVCTK [BTK_Y461_G462D],2.56
6,KDKLPYPFDDP [GPX2_Y125_YF],0.533
7,TGNPAYRSFSN [IL4R_Y497_A492T],0.326
8,HQPGEYIFHAE [FLT3_Y416],0.795
9,ENFDDYMKDVG [FABP4_Y20_E23D],0.443
10,PRARTYCFKQE [KLHDC9_Y175_S171R_YF],0.383
11,WAFNLYDINKD [KCNIP3_Y174],1.82
12,ALLVFYAATIA [SLC20A2_Y187_P184L],0.501
13,GMKIVYVFVKK [DNAI2_Y5_E2K_YF],0.416
14,GPSTPYTKSKR [SMARCC2_Y324],0.324
15,IVAEYYDNLPH [DEGS1_Y284_A280V],1.37
16,GLAELYEYQKK [CKAP5_Y1854_K1857Q],0.87
